Results on three molecules are retold here after article PMC12442453.

Positions count from the first letter of the chain named. Numbers in names are those of the source.

In experiment [1] the target is T1, human EPOR ectodomain (ECD) fused to a human Fc domain (EPOR-Fc), P19235.
T1 chain: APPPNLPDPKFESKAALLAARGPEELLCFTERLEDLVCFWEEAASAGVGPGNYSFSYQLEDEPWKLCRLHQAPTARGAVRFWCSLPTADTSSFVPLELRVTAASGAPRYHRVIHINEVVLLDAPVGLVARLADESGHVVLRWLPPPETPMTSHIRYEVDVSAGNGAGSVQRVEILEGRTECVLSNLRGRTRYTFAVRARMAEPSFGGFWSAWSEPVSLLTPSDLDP
Kind of experiment: BLI. The following applies: chain shown with the change; solution-phase Db-Fc, immobilized EPOR-Fc.

Experiment [2] has as its target T2, human EPOR, endogenous on TF-1 cells (human (endogenous in TF-1)) (UniProt P19235).
T2 sequence: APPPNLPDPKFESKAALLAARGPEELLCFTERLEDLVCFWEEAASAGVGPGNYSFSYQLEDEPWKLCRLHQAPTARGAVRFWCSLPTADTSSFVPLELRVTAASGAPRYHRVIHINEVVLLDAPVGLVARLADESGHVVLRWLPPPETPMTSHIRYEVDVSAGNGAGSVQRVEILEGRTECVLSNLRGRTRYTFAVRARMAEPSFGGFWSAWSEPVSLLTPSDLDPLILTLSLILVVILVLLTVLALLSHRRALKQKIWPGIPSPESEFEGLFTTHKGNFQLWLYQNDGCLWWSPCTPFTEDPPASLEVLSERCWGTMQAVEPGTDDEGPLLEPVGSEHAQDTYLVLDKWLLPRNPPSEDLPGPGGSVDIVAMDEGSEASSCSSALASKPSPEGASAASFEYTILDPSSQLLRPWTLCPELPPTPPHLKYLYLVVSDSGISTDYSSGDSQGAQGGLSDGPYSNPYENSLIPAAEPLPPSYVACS

In experiment [3] the target is VL–VH 1.1 without an Fc domain. Description: crystal structure; VL–VH 1.1 alone, space group P21, 2.06 Å, four chains in the asymmetric unit; 20% PEG8000, 100 mM CHES.

B1: Db-Fc 1 L:Y109D; L:I116F; H:Y35R; H:I39M; H:Y59H; H:S63G; H:G114S (protein)
chain 1: EVQLVESGGGLVQPGGSLRLSCAASGFNLRSYYMHWVRQAPGKGLEWVASISPHYGYTYYADSVKGRFTISADTSKNTAYLQMNSLRAEDTAVYYCARHGYSAMDYWGQGTLVTVSS
chain 2: DIQMTQSPSSLSASVGDRVTITCRASQSVSSAVAWYQQKPGKAPKLLIYSASSLYSGVPSRFSGSRSGTDFTLTISSLQPEDFATYYCQQSSDSLFTFGQGTKVEIK
The molecule B1 displayed an equilibrium dissociation constant (Kd) in experiment [1] of 3.8 nM. This lies in the single-digit nanomolar range.

B2: Db-Fc 1.3 (Fc fusion)
VH: B1 chain 1
VL: B1 chain 2
For the molecule B2, in experiment [2], the UT-7/Epo cell proliferation, EC50; Hb-Fc3 fraction of variant 1.3 (putative hexamer) stood at 1.1 nM; the UT-7/Epo cell proliferation, EC50; purified Db-Fc fraction of variant 1.3 (putative dimer) stood at 16 nM; the UT-7/Epo cell proliferation, EC50; unfractionated Db-Fcmix 1.3 came to 1.8 nM; the UT-7/Epo cell proliferation, maximum response; Hb-Fc3 fraction of variant 1.3 (putative hexamer) is 3.4e+06 RLU. Also, in experiment [2], the UT-7/Epo cell proliferation, maximum response; purified Db-Fc fraction of variant 1.3 (putative dimer) is 600000 RLU and the UT-7/Epo cell proliferation, maximum response; unfractionated Db-Fcmix 1.3 came out at 2.5e+06 RLU.

B3: VL–VH 1.1 without an Fc domain (protein)
VH: B1 chain 1 with H54Y, G56S, S102G
VL: B1 chain 2 with D93Y, F96I
Regarding B3, the stoichiometry N in experiment [3] was 4.

For orientation: Kd means the free concentration of one partner at which half of the binding sites on the other are occupied at equilibrium, for simple one-to-one binding. Usually stoichiometry N stands for the number of molecules, sites or subunits per partner or assembly.
